One series concerns the target T1, ΔEstLA (Roseibium aggregatum, UniProt A0NLQ8).
T1 construct: gene SIAM614_09253; N-terminal His6 (pDEST17), E. coli BL21-AI
T1 sequence (A0NLQ8 1-266): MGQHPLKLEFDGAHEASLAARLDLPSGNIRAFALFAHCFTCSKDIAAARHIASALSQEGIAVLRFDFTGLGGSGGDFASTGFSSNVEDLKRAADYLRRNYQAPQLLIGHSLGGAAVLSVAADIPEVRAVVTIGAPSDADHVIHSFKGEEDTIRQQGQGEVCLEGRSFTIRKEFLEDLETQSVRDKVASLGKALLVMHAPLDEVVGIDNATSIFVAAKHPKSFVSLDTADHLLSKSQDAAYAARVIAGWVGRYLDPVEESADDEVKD
In words: […] min end-point 4-nitrophenol release, […] nm. Format: biochemical. As to conditions: 1.5 mM substrate, gum arabic, universal buffer pH 5-11, 30 °C, or Tris-HCl pH 8.5, 5-50 °C.

For the next series, the target named is T2, ΔEstO (Pseudoalteromonas arctica, UniProt D6CHH1).
T2 construct: gene estO; N-terminal His6 (pDEST17), E. coli BL21-AI
In words: […] min end-point 4-nitrophenol release, […] nm. The conditions noted are these: 1.5 mM substrate. The class given is biochemical.

The target of a further series is T3, ΔEstCAL (Cellulophaga algicola, UniProt E6X8P4).
T3 construct: gene Celal_0286; C-terminal His6 (pEXP5-CT), E. coli BL21-AI
In words: […] min end-point 4-nitrophenol release, […] nm. Format: biochemical. As to conditions: 1.5 mM substrate, gum arabic, universal buffer pH 5-11, 30 °C, or Tris-HCl pH 8.5, 5-50 °C.

A further series concerns the target T4, ΔEstEM (Sinorhizobium meliloti, UniProt Q92Y44).
T4 construct: gene SMa1898; N-terminal His6 (pDEST17), E. coli BL21-AI
In words: […] min end-point 4-nitrophenol release, […] nm. Format: biochemical. As to conditions: 1.5 mM substrate.

A further series has as its target T5, ΔEstCA (Catenulispora acidiphila, UniProt C7Q579).
T5 construct: gene Caci_7018; C-terminal His6 (pEXP5-CT), E. coli BL21-AI
T5 sequence (C7Q579 1-255): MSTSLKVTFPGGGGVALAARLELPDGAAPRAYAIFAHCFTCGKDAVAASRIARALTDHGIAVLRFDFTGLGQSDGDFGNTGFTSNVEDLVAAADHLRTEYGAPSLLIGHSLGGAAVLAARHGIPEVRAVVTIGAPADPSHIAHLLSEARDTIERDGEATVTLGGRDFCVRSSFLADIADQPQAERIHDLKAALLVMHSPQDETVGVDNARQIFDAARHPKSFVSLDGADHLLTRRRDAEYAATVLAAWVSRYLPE
In words: […] min end-point 4-nitrophenol release, […] nm. The conditions noted are these: 1.5 mM substrate, gum arabic, universal buffer pH 5-11, 30 °C, or Tris-HCl pH 8.5, 5-50 °C. Format: biochemical.

In another series the target is T6, ΔEstRD (Roseobacter denitrificans, UniProt Q166H3).
T6 construct: gene RD1_2563; C-terminal His6 (pEXP5-CT), E. coli BL21-AI
In words: […] min end-point 4-nitrophenol release, […] nm. Format: biochemical. The conditions noted are these: 1.5 mM substrate.

Substrate in series [1]: CCCC(=O)Oc1ccc([N+](=O)[O-])cc1
As to the kind of experiment: purified protein. The class given is biochemical, Rhodothermus marinus. The conditions noted are these: 25 mM Tris-HCl pH 8.5, 5% acetonitrile, 0.5% Triton X-100.

Substrate in series [2]: CCCCCCCC(=O)Oc1ccc([N+](=O)[O-])cc1
In words: purified protein. The class given is biochemical, Rhodothermus marinus. As to conditions: 25 mM Tris-HCl pH 8.5, 5% acetonitrile, 0.5% Triton X-100.

Substrate in series [3]: O=C(Oc1ccc([N+](=O)[O-])cc1)c1ccccc1
In words: purified protein. The class given is biochemical, Rhodothermus marinus. The conditions noted are these: 25 mM Tris-HCl pH 8.5, 5% acetonitrile, 0.5% Triton X-100.

Substrate in series [4]: CC(=O)Oc1ccc([N+](=O)[O-])cc1
As to the kind of experiment: purified protein. Format: biochemical, Rhodothermus marinus. As to conditions: 25 mM Tris-HCl pH 8.5, 5% acetonitrile, 0.5% Triton X-100.

Substrate in series [5]: CCCCCCCCCCCC(=O)Oc1ccc([N+](=O)[O-])cc1
As to the kind of experiment: purified protein. The conditions noted are these: 25 mM Tris-HCl pH 8.5, 5% acetonitrile, 0.5% Triton X-100. Format: biochemical, Rhodothermus marinus.

Substrate in series [6]: CCCCCCCCCC(=O)Oc1ccc([N+](=O)[O-])cc1
In words: purified protein. The class given is biochemical, Rhodothermus marinus. The conditions noted are these: 25 mM Tris-HCl pH 8.5, 5% acetonitrile, 0.5% Triton X-100.

The mark [7] stands for this setting: gum arabic, universal buffer pH 5-11, 30 °C, or Tris-HCl pH 8.5, 5-50 °C.

The text below walks through data of PMC5113044, “Characterisation of a New Family of Carboxyl Esterases with an OsmC Domain” (PLoS ONE, 2016).

Substitutions are numbered along the chain they refer to. In names and notes the source's numbering stands.

T4 sequence (Q92Y44 entry or part of it, stated change not applied): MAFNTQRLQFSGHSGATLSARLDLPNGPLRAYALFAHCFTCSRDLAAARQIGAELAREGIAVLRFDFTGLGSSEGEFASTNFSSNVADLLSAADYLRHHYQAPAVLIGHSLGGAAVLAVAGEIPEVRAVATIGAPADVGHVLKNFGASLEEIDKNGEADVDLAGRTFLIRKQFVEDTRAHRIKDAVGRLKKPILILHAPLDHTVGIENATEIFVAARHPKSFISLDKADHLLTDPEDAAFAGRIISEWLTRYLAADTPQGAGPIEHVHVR
T2 sequence (D6CHH1 entry or part of it, stated change not applied): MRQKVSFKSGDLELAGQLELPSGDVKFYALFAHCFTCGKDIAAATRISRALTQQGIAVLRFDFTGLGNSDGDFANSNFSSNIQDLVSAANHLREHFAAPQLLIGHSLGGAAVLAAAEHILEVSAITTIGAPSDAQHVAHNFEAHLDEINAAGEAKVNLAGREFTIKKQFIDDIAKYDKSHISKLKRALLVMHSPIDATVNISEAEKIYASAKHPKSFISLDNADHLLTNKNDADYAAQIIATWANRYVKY
T6 sequence (Q166H3 entry or part of it, stated change not applied): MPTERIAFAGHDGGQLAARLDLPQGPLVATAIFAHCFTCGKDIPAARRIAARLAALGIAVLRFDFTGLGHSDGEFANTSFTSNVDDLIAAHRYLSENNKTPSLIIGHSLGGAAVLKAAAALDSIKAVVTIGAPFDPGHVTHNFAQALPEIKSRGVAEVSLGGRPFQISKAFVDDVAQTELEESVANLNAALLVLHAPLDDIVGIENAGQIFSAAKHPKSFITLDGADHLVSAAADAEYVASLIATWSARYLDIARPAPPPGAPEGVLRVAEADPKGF
T3 sequence (E6X8P4 entry or part of it, stated change not applied): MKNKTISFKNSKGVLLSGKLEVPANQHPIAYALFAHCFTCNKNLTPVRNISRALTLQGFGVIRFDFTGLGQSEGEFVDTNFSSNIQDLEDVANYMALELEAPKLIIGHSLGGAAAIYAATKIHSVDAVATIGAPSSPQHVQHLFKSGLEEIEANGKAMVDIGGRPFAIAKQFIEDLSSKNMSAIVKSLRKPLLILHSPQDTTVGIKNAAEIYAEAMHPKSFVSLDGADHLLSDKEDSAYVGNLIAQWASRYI

With `O=C(Oc1ccc([N+](=O)[O-])cc1)c1ccccc1` [4NP-benzoate], the “30 min end-point 4-nitrophenol release, 410 nm” value was “optimum temperature and pH profiles of each enzyme using p-nitrophenyl benzoate as a substrate” on ΔEstLA; “optimum temperature and pH profiles of each enzyme using p-nitrophenyl benzoate as a substrate” on ΔEstO (setting [7]); “optimum temperature and pH profiles of each enzyme using p-nitrophenyl benzoate as a substrate” at ΔEstCAL; “optimum temperature and pH profiles of each enzyme using p-nitrophenyl benzoate as a substrate” at ΔEstEM (setting [7]); “optimum temperature and pH profiles of each enzyme using p-nitrophenyl benzoate as a substrate” on ΔEstCA; “optimum temperature and pH profiles of each enzyme using p-nitrophenyl benzoate as a substrate” at ΔEstRD (setting [7]).

As to `CCCCCCCCCC(=O)Oc1ccc([N+](=O)[O-])cc1` [4NP-decanoate], the “30 min end-point 4-nitrophenol release, 410 nm” value is “ΔEstEM, ΔEstRD, and ΔEstO showed a preference for decanoate (C10)” on ΔEstO (Tris-HCl pH 8.5); “ΔEstEM, ΔEstRD, and ΔEstO showed a preference for decanoate (C10)” at ΔEstEM (Tris-HCl pH 8.5); “ΔEstEM, ΔEstRD, and ΔEstO showed a preference for decanoate (C10)” at ΔEstRD (Tris-HCl pH 8.5).

B1: ΔEstRM (Rhodothermus marinus DSM 4252; S72A) (protein)
chain: MQIKTVTFENNRGERLAARLDLPVDTQPVAYALFAHCFTCSKNLKAVTTISRALTTQGYAVLRFDFTGLGEAEGDFSETTFATNFEDLRAACRFLSAQYEPPALLIGHSLGGAAVLAVAGEFPEVKAVATIGAPCDPAHVRHLLRPALDTIKTVGEAVVDLGGRPFRIKKQFLEELERVNLEDQVRTMRRPLLLFHSPTDQIVGIENAACLFQAARHPKSFVSLDQADHLLSNSDDAAFVGEVLGAWARRYVGRR
notes: esterase domain, residues 1-255 of 410, OsmC domain removed; N-terminal His6 (pDEST17, E. coli BL21-AI; crystal text says C-terminal His6); monomer
Usually Km stands for the substrate concentration at which the rate is half of its maximum. On to B1, for which the Km is 1.05 ± 0.21 mM in “purified protein [1]” and 0.66 ± 0.06 mM in “purified protein [2]”.

B2: ΔEstRM (Rhodothermus marinus DSM 4252) (protein)
chain: B1 chain with A72S
notes: as for B1
Regarding B2, the Km was 0.244 ± 0.012 mM in the series “purified protein [3]”; 3.54 ± 0.8 mM in “purified protein [4]”; 1.07 ± 0.17 mM in “purified protein [1]”; 0.981 ± 0.15 mM in “purified protein [5]”; 0.825 ± 0.13 mM in the series “purified protein [6]”; 0.49 ± 0.048 mM in “purified protein [2]”.

B3: EstRM (Rhodothermus marinus DSM 4252) (protein)
chain: MQIKTVTFENNRGERLAARLDLPVDTQPVAYALFAHCFTCSKNLKAVTTISRALTTQGYAVLRFDFTGLGESEGDFSETTFATNFEDLRAACRFLSAQYEPPALLIGHSLGGAAVLAVAGEFPEVKAVATIGAPCDPAHVRHLLRPALDTIKTVGEAVVDLGGRPFRIKKQFLEELERVNLEDQVRTMRRPLLLFHSPTDQIVGIENAACLFQAARHPKSFVSLDQADHLLSNSDDAAFVGEVLGAWARRYVGRRPVPDTYRLDPGEARAVVRTGRAHYRTDIAADGHALVADEPAPLGGTDAGPSPYGYLAAALGACTTITLRLYADRKGWPLEAATAYIYHEKVHLNDCTECAEQGIEQTPGGKIDRFTVELTLEGALDAAQRQRLLEIAGRCPVHRTLKSPVVTRTRLRD
notes: full length, 410 residues, His6 tag, E. coli BL21-AI; monomer
For B3, the figures for the Km in “purified protein [3]”, in the series “purified protein [1]” and in “purified protein [2]” were 0.292 ± 0.031 mM, 0.962 ± 0.14 mM and 0.309 ± 0.07 mM, respectively.
